The series is described as follows: soluble on expression in E. coli; label from the status in PepcDB or PDB records.
On to “MHHHHHHSSGRENLYFQGMAKERRRAVLELLQRPGNARCADCGAPDPDWASYTLGVFICLSCSGIHRNIPQVSKVKSVRLDAWEEAQVEFMASHGNDAARARFESKVPSFYYRPTPSDCQLLREQWIRAKYERQEFIYPEKQEPYSAGYREGFLWKRGRDNGQFLSRKFVLTEREGALKYFNRNDAKEPKAVMKIEHLNATFQPAKIGHPHGLQVTYLKDNSTRNIFIYHEDGKEIVDWFNALRAARFHYLQVAFPGASDADLVPKLSRNYLKEGYMEKTGPKQTEGFRKRWFTMDDRRLMYFKDPLDAFARGEVFIGSKESGYTVLHGFPPSTQGHHWPHGITIVTPDRKFLFACETESDQREWVAAFQKAVDRPMLPQEYAVEAHFKHKP”, for which the “soluble on expression in E. coli” value is recorded as “soluble”.
The value for “MHHHHHHSSGVDLGTENLYFQSMASGANFEYIIAEKRGKNNTVGLIQLNRPKALNALCDGLIDELNQALKIFEEDPAVGAIVLTGGDKAFAAGADIKEMQNLSFQDCYSSKFLKHWDHLTQVKKPVIAAVNGYAFGGGCELAMMCDIIYAGEKAQFAQPEILIGTIPGAGGTQRLTRAVGKSLAMEMVLTGDRISAQDAKQAGLVSKICPVETLVEEAIQCAEKIASNSKIVVAMAKESVNAAFEMTLTEGSKLEKKLFYSTFATDDRKEGMTAFVEKRKANFKDQ” was “soluble”; that for “MHHHHHHSSGVDLGTENLYFQSMSAQNNAKVAVLGASGGIGQPLSLLLKNSPLVSRLTLYDIAHTPGVAADLSHIETKAAVKGYLGPEQLPDCLKGCDVVVIPAGVPRKPGMTRDDLFNTNATIVATLTAACAQHCPEAMICVIANPVNSTIPITAEVFKKHGVYNPNKIFGVTTLDIVRANTFVAELKGLDPARVNVPVIGGHAGKTIIPLISQCTPKVDFPQDQLTALTGRIQEAGTEVVKAKAGAGSATLSMAYAGARFVFSLVDAMNGKEGVVECSFVKSQETECTYFSTPLLLGKKGIEKNLGIGKVSSFEEKMISDAIPELKASIKKGEDFVKTLK” was “soluble”; that for “MHHHHHHSSGVDLGTENLYFQSMSFAVGMFKGQLTTDQVFPYPSVLNEEQTQFLKELVEPVSRFFEEVNDPAKNDALEMVEETTWQGLKELGAFGLQVPSELGGVGLCNTQYARLVEIVGMHDLGVGITLGAHQSIGFKGILLFGTKAQKEKYLPKLASGETVAAFCLTEPSSGSDAASIRTSAVPSPCGKYYTLNGSKLWISNGGLADIFTVFAKTPVTDPATGAVKEKITAFVVERGFGGITHGPPEKKMGIKASNTAEVFFDGVRVPSENVLGEVGSGFKVAMHILNNGRFGMAAALAGTMRGIIAKAVDHATNRTQFGEKIHNFGLIQEKLARMVMLQYVTESMAYMVSANMDQGATDFQIEAAISKIFGSEAAWKVTDECIQIMGGMGFMKEPGVERVLRDLRIFRIFEGTNDILRLFVALQGCMDKGKELSGLGSALKNPFGNAGLLLGEAGKQLRRRAGLGSGLSLSGLVHPELSRSGELAVRALEQFATVVEAKLIKHKKGIVNEQFLLQRLADGAIDLYAMVVVLSRASRSLSEGHPTAQHEKMLCDTWCIEAAARIREGMAALQSDPWQQELYRNFKSISKALVERGGVVTSNPLGF” was “soluble”.
Turning to “MHHHHHHSSGVDLGTENLYFQSNAMADCYLTEKKKNFIPIQPMMPDELPDWLDTQDARTQQWVKASGFVGLAGTICSIPESTGALQRVLLGVSDYEYSWDFGGLSKVLPPGAFQLNRDDFEDDEYYERALLAFGLGSYQFNAYRKRSPYLAKLFLPQAHRKRVTDWLTTIYLIRDLINTPAEDMGPSELAQAVKHVAKEFEAKVKIIESKDLETEFPAIYAVGRAGSRPPLLIDLKWGDIKAPKVTLVGKGVCFDSGGLDIKTPGGMLLMKKDMGGAAHALGLARMIMLQQLPVRLRLLIPAVENAIGSRSYRPGDVVQTRARKTIEITNTDAEGRVVLADALAEAVKEDPDLIIDFSTLTGAARIALGPNLPALFANQDSLAQALIDASLKTDDPLWRLPLFQPYRNYLKSEVADLTNSSQNRMAGAITAALFLQHFVSDQIPWAHFDIFAWNLEDLPGRPIGGEAMALRAVFHYLEQQYR”, the “soluble on expression in E. coli” value is “soluble”.
On to “MHHHHHHSSGVDLGTENLYFQSNAMSSKIFCKSWGAEYIAADVVRFRLWATGQQKVMLRLAGKDQEMQANGDGWFTLDVAGVTPGTEYNFVLSDGMVVPDPASRAQKTDVNGPSYVVDPGSYTWRNTGWKGSRWEQAVVYEMHTGTFTPEGTFRAAIAKLPYLAELGVTVIEVMPVAQFGGERGWGYDGVLLYAPHSAYGTPDDFKAFIDAAHGYGLSVVLDIVLNHFGPEGNYLPLLAPAFFHKERMTPWGNGIAYDVDAVRRYIIEAPLYWLTEYHLDGLRFDAIDQIEDSSARHVLVEIAQRIREDITDRPIHLTTEDSRNIISLHPRDQDGNAPLFTAEWNDDFHNAVHVFATGETQAYYNDFADAPEKHLARALAEGFAYQGEISPQTGEPRGVKSTGQPPVAFVDFIQNHDQVGNRAQGDRLITLAGAERTKVLLATLLLSPHIPLLFMGEEYGESRPFLFFTDFHGDLARAVREGRAKEFADHAGENVPDPNAPETFQRSKLNWKQQHSEEGKAWLAFTRELLLLRQKHIVPLLSAARESSGTVLQTAPGFIAVSWRFPGGTLSLALNISATTVLLPDLPGKTLFAWPNESTGSLSQHSLIVRLAQGESAS”, for which the “soluble on expression in E. coli” value was “soluble”.
Take “MHHHHHHSSGVDLGTENLYFQSNAMTIMLTPMQTEEFRSYLTYTTKHYAEEKVKAGTWLPEDAQLLSKQVFTDLLPRGLETPHHHLWSLKLNEKDIVGWLWIHAEPEHPQQEAFIYDFGLYEPYRGKGYAKQALAALDQAARSMGIRKLSLHVFAHNQTARKLYEQTGFQETDVVMSKKL”: the “soluble on expression in E. coli” value is recorded as “soluble”.
Take “MHIAILGCTSQIAKDLIRSIYVYSQHDLILFGRTPQQTQSWLAENGITSRCSVNQYEEYPNIDHDVVINFVGIGDPSKAAAMGGSIFDITLHYDELVLNELKKYPDRRYLFLSSGAAYGSSFLEPADADTPSTININNLLPQEYYSVAKLHAECRHRSLKEYAIVDLRVFNVFSRTQDLEARFFITDIVRSIHSGTELITSSDMIYRDFMHPKDFYQLVERVLNAPPMNISLDCYSRQPVDKTTLLDEMKKTFGLSYRVKESNMSINATGIKPCYYSKNKRAAEFGYLPEYSSLETIIEETNAILGLQKTVLEHHHHHH”: the “soluble on expression in E. coli” value is given as “soluble”.
Turning to “MHIEFREFNPFDVWIWLKFSNVPSEREKQYVEEVFNSWFYLGKLGAFNAENLQVQDTGLDISYMDYDPSAYNKSFLALMHNMSEFEYEGEWGRCWFDLGTSDAIALDLLLNSLTQLSEEYVTIEILYIGGENSDWPVEDSETHANADSIYDY”, the “soluble on expression in E. coli” value is “not soluble”.
The value for “MHIVIVGAGAVGGFFGGLLHESGTKVTFVARGKSLDALQRRGMRLHDASGVRDIRVPVVEDLSHVPDADVVILATKTLGSVDVPKNLPKSAVLVTTQNSVEMPHIAVEALGVDRVIPGVVRSFLTKRGPAEAEFSGGIFTFTFGCMSEATRGIVDKLAHVLDRAGIEPVVHPAIMTDIWFKAMFVTCFGALGALVNQPLGVVRTTYRDDFKALINEVVTAGQAHGVDFPEDVVDRVLAFADAQPKGATSSMQRDLANGLPSELDAQAGAVVRMAQRVGVDARLHHLVGNVLSHKHSD” was “soluble”.
“MHLKNNQTLANGATVTIYPTTTEPTNYVVYLHGGGMIYGTKSDLPEELKELFTSNGYTVLALDYLLAPNTKIDHILRTLTETFQLLNEEIIQNQSFGLCGRSAGGYLMLQLTKQLQTLNLTPQFLVNFYGYTDLEFIKEPRKLLKQAISAKEIAAIDQTKPVWDDPFLSRYLLYHYSIQQALLPHFYGLPENGDWSAYALSDETLKTFPPCFSTASSSDEEVPFRYSKKIGRTIPESTFKAVYYLEHDFLKQTKDPSVITLFEQLDSWLKER”: the “soluble on expression in E. coli” value is “soluble”.
For the sequence “MHMSFDGMFTYGMTHELNEKIMGGRITKIHQPYKHDVIFHIRAKGKNQKLLLSAHPSYSRVHITAQAYENPSEPPMFCMLLRKHIEGGFIEKIEQAGLDRIMIFHIKSRNEIGDETVRKLYVEIMGRHSNIILTDAAENVIIDGLKHLSPSMNSYRTVLPGQDYKLPPAQDKISPLEASEDDILRHLSFQEGRLDKQIVDHFSGVSPLFAKEAVHRAGLANKVTLPKALLALFAEVKEHRFIPNITTVNGKEYFYLLELTHLKGEARRFDSLSELLDRFYFGKAERDRVKQQAQDLERFVVNERKKNANKIKKLEKTLEYSENAKEFQLYGELLTANLYMLKKGDKQAEVINYYDEESPTITIPLNPNKTPSENAQAYFTKYQKAKNSVAVVEEQIRLAQEEIEYFDQLIQQLSSASPRDISEIREELVEGKYLRPKQQKGQKKQKP”, the “soluble on expression in E. coli” value is reported as “soluble”.
The value for “MHNVVFVLGPPGSGKGTICAKIQENLNYVHLSAGDLLRAERQREGSEFGALIESHIKNGSIVPVEITCSLLENAMKACGDAKGFLVDGFPRNEDNLQGWNKQMDGKALVQFVLFLSCPVSICIERCLNRGQGRTDDNEESLKKRVETYNQQTFPIIEHFEKSGLVREVKSERPVDVVYADVEKVFDAANKK” was “not soluble”; that for “MHSAKNEKCNACGGYRFSVNDGFKYCDRCGALFENFEELEEEEGGLQQTVGQGKVKVRKNDDQKRVRNNAAPVNLPKAQVMREALEKRSDFLQQQAIKGEELELPHDATPDYLYRLALRLFSFTQILAKSGHILVHELNFESRVQENILATFQKYLAHCQVAFCHSEQCGNDEHLRFVAVMENLRYEQEEREEKQRKRMAKRGKGVNALSKSAAAWTLLTQGNITEHLDIASDEDGDQDAQGGQQLDDLTLETTQNPDESIRVNDTTMGFVRKVTTALSKEALRRASQLILNLEMLVAILHSALMSSGYQTILTSDVVRWIREDRFRISRRSIRLIRQSQPERMKQGEVVKPTIVDYAEPFLRFPLYEIMRTCTIFHQSLKLASSMAPQSFESMSARLVDNLNLPSDILSRMLILESIIPCDVSPQLLKQVDVDMGYNCGQLAAMSPNVYYSGFLTSFGRKERGTQDADFCDEVLLSPDAKLIAYLLLTLRLTFQLDNAQCALQDDQYFDVDSWIHQLEMRIKCWQGHNMSLVMRSSSHVPEMVVDPPFGTNYLFHQEKGAPQVSCRRRQAGFQKCIPTEMSFNSTSTLPTVFDVRHMGLLTERCQMEALISPVKFQRTVLGNEIERDPLTFENVDRQSKNTFFKHFSAFKTTESCDTFEEYFPCAKNYLLFKRPDWIQNCTARQTHFNPVTGPIRFYLSNQSCDDLLGTAATSFSRRFQFLLDALSLIIGEDKKAVYAAFVMLEMHLTSSERIQSIRDDLLTSSPITLKCQKFRNSTHHIPRKYGVISEVPIDRIENLRYFRLSRQFFEHEEMPTTINMELIDYRNQEIRDSVTETEVQRAQNRIMKLCYEFEQFFGILAVKFW” was “soluble”; that for “MHSVARENLQAYLHSYKLSSNEPGIKLMHNSQRDDQHRKDVEHFAALRALQHSKRKHVAFAVQAMRDYDGSLDEKSPLKDHTISFNTNDFIHIHTKFNSDWWIGRIVRSHSEFGFVPTARRLANYMVSDEDPPVKHNTSDHQDRSIWEPKCPYKVVPSSRPIVLLGPTLQHSRLTQLLHLALREEILKHFGKNMKYVKSDIGSGQQSGDRKGARWLRGLRDYDRGQDENQEVELIMRMTSKLHLLLVDSPHIHTPDDVQHLPLSPIFFLIRVSDNKILAKLLRNTGTTRMAAEIEVANVLKTMNDDRVGGHDDEQLIARGFEMVIEENGLREATRRIISYLEKYIHALHYHHKDDEI” was “not soluble”.
As to “MHTIDVIDSHTAGEPTRVVLAGFPDLGDGDLAQCRERFRSDFDHWRSAIACEPRGSDTMVGALLLPPRDPSACTGVIFFNNVGYLGMCGHGTIGVVRTLAELGRIAPGQHRIETPVGTVGVALADDGTVSIDNVESYRHAAGVEVDVPGHGRVRGDVAWGGNWFFITEQAPCALGLAQQRELTAYTEAIRLALEAAGITGEAGGEIDHIEISGVAPDGSGAARNFVLCPGLAYDRSPCGTGTSAKLACLAADGKLAEGERWLQQGILGSAFEGSYRHSGRGIAPRISGHAFITARSQLLIDPADPFAWGIVALEHHHHHH”, the “soluble on expression in E. coli” value was “not soluble”.

The record behind these values is the DeepSol protein solubility set.
